From patent US10711041B2, “Lyophilisate containing a cyclic peptide of formula X1-[sequence]-X2” (priority 2013, dated 2020)
“Also recorded” adds a separate entry of the source. Bridges are numbered along the chain shown (N, C = ends). Where no end group is shown, it is not given here.

How the values were obtained:
[1] = target: T1, amilorid-sensitive Sodium Ion Channel (ENaC) (Homo sapiens, UniProt P37088); assay: Biological activity of condensed aerosol by Patch Clamp in A549 cells; type: cell-based; conditions: Mesh-Type nebulizer, aerosol condensed in cooling trap
T1 construct: Macroscopic Sodium Ion Currents were derived from human lung epithelian cells A549; endogenous in cells; host or cells: A549 human lung epithelial cells
T1 sequence (P37088 1-669): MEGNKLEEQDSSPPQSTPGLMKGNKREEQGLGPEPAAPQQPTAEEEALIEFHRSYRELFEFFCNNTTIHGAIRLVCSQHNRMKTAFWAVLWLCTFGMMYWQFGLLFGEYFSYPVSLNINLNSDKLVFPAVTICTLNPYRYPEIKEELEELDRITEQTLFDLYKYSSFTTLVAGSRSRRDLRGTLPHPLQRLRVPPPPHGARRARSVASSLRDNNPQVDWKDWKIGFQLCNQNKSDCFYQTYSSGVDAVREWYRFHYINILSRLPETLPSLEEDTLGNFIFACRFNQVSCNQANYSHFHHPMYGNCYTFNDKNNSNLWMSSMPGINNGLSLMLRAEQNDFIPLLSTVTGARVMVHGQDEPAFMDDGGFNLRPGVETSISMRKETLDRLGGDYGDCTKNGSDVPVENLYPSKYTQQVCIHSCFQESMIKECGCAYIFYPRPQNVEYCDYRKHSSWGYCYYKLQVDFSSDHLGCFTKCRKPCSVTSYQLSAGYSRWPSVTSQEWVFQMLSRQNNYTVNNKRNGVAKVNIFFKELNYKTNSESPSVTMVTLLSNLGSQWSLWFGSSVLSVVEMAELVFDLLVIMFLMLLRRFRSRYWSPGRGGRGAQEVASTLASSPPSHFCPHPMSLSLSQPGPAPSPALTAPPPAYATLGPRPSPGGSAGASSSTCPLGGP
T1 sequence (P51168 1-640 partner): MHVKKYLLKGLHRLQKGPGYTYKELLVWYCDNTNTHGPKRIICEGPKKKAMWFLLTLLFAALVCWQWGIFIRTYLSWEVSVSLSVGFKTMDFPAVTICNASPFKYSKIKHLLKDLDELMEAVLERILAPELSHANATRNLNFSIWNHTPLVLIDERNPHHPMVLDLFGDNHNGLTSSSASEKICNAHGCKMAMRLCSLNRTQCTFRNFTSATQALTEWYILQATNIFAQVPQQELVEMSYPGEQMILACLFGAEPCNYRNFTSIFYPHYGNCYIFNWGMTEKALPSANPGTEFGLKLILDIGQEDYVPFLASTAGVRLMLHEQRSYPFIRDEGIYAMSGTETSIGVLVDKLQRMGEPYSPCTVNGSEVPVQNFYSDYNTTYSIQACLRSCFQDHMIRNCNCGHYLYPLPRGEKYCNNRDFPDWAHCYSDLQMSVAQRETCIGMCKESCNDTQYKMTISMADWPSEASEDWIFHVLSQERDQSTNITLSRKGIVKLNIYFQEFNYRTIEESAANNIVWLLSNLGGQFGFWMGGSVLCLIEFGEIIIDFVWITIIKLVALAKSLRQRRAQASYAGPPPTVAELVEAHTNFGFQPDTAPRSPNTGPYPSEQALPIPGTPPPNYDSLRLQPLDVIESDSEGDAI
T1 sequence (P51170 1-649 partner): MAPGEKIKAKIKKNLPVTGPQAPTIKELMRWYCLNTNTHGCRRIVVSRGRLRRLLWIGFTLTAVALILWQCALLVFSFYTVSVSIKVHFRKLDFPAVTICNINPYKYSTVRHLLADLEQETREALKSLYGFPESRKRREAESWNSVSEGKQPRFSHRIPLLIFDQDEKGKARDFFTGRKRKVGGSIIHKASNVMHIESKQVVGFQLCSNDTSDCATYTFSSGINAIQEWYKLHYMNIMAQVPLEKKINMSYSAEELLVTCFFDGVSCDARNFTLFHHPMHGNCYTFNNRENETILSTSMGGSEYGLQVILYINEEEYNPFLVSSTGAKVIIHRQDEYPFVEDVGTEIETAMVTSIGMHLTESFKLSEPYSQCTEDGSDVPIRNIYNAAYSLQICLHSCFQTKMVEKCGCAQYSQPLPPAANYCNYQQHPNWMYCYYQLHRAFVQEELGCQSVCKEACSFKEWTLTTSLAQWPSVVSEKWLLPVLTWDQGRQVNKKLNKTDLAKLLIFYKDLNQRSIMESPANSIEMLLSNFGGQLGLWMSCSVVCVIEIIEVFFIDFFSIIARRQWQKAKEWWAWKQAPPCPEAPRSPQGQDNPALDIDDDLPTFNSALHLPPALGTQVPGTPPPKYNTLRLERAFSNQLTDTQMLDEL
Experimental: Since proteins and peptides occasionally may be rather unstable, it was investigated, whether the cyclic peptides of amino acid sequence SEQ ID NO:1 to SEQ ID NO:6 in dissolved preparation during conversion into an aerosol remain stable. For that the cyclic peptides were dissolved in water as described in example 4. After filling into the storage container of a nebulizer the aqueous solution of the cyclic peptides were converted into an aerosol. For that a “Mesh-Type” nebulizer was used. The biological activity of the collected aerosols was determined by means of the Patch Clamp method. Thereby macroscopic currents of A549 cells were deduced in the “whole cell” configuration of the “Patch-clamp” technique, as described under “Electrophysiological Investigations of the Amilorid-sensitive Sodium Ion Channel (ENaC)”.

[2] = target: T1, amilorid-sensitive Sodium Ion Channel (ENaC); assay: Patch-clamp whole cell, amilorid-sensitive sodium ion current in A549 cells; type: cell-based
Experimental: Macroscopic Sodium Ion Currents were derived from human lung epithelian cells A549 in the “whole cell” configuration by means of the “Patch-clamp” technique (Hamill et al, Pflugers Arch. 1981, 391(2):85-100, 1981). For the currents in the “whole cell” configuration the following bath- and electrode solutions were used:
Bath solution: 135 mM sodium methansulfonate, 10 mM NaCl, 2.7 mM KCl, 1.8 mM CaCl2, 2 mM MgCl2, 5.5 mM glucose, and 10 mM HEPES, pH 7.4.
Electrode solution: 120 mM potassium methansulfonate, 15 mM KCl, 6 mM NaCl, 1 mM Mg2ATP, 2 mM Na3ATP, 10 mM HEPES, and 0.5 mM EGTA (pH 7.2).
Cover glasses with thereon cultivated cells were transferred into a 1 ml containing trial bath, fixed onto the microscope table (Axiovert 100, 400-fold enlargement) and the cells were superfunded with the above described bath solution. Subsequent from an appropriate cell (sticking on the cover glass) the current was deduced. […] On receipt of a “Gigaohm-Seal” a defined membrane hold potential was created via a preamplifier (CV-4 Headstag, Axon Instruments) and amplifier (Axopatch 1D, Axon Instr.) and the current which thereby flows through the ion channels is measured.
That protocol was done before (control) and after addition of the cyclic proteins. The thus obtained currents were recorded and analyzed by means of the program PCLAMP 6.0. […]

Compound | biological stability during transformation into an aerosol [1] | biological activity (in words) ([2]; amilorid-sensitive sodium current) | EC50 (activity on cellular amilorid-sensitive sodium ion current) ([2]; whole cell patch clamp)
C[C@@H]1NC(=O)CNC(=O)[C@H](CCC(=O)O)NC(=O)[C@@H]2CCCN2C(=O)[C@H]([C@@H](C)O)NC(=O)[C@H](CCC(=O)O)NC(=O)[C@H](CCCNC(=N)N)NC(=O)[C@H](CCC(N)=O)NC(=O)CNC(=O)[C@@H](N)CSSC[C@@H](C(=O)O)NC(=O)[C@H](Cc2ccc(O)cc2)NC(=O)[C@H](Cc2c[nH]c3ccccc23)NC(=O)[C@@H]2CCCN2C(=O)[C@H](CCCCN)NC(=O)[C@H](C)NC(=O)[C@H](CCC(=O)O)NC1=O [SEQ ID NO: 1] | keeps its biological, as well as its chemical stability |  | 
Cyclo(CGQREAPAGAAAKPWYC) (disulfide 1-17) [SEQ ID NO: 7, reference compound] |  | biologically inactive; also recorded: not active | no activity
